Test: soluble on expression in E. coli; label from the status in PepcDB or PDB records

Sequence	soluble on expression in E. coli
AGTHDYSTALKDSIIFFDANKCGPQAGENNVFDWRGACHTTDGSDVGVDLTGGYHDAGDHVKFGLPQGYSAAILGWSLYEFKESFDATGNTTKMLQQLKYFTDYFLKSHPNSTTFYYQVGEGNADHTYWGAPEEQTGQRPSLYKADPSSPASDILSETSAALTLMYLNYKNIDSAYATKCLNAAKELYAMGKANQGVGNGQSFYQATSFGDDLAWAATWLYTATNDSTYITDAEQFITLGNTMNENKMQDKWTMCWDDMYVPAALRLAQITGKQIYKDAIEFNFNYWKTQVTTTPGGLKWLSNWGVLRYAAAESMVMLVYCKQNPDQSLLDLAKKQVDYILGDNPANMSYIIGYGSNWCIHPHHRAANGYTYANGDNAKPAKHLLTGALVGGPDQNDKFLDDANQYQYTEVALDYNAGLVGVLAGAIKFFGGTIVNPPVKK	soluble
MGSDKIHHHHHHMTTSYAKIEITGTLTVLTGLQIGAGDGFSAIGAVDKPVVRDPLSRLPMIPGTSLKGKVRTLLSRQYGADTETFYRKPNEDHAHIRRLFGDTEEYMTGRLVFRDTKLTNKDDLEARGAKTLTEVKFENAINRVTAKANLRQMERVIPGSEFAFSLVYEVSFGTPGEEQKASLPSSDEIIEDFNAIARGLKLLELDYLGGSGTRGYGQVKFSNLKARAAVGALDGSLLEKLNHELAAV	not soluble
MGFGNINFCAVDLGSHKITVAIGQLAENNSIKILGVSQKQSKGIKQGSVINLEIAMETLNAALDEAKSIAGVDVKEVTLGVSAPSISGFNSYGLAAVENGEVSIEDLAMAIKTAKAVPMSADTEMLHVLQRDYIVDGQAGVTEPIGMFAVRLESNVHIIVASSRLLQNVRKCVSNCGYSISNLVVEHLAASSATLTDNEKEMGVCLVNIGADSTSFSVFADGGICYTSSIKTGGASISSDISKVFRLPIEAAESLKLQYGYAASKYLKNPDEKIDIPNSLGNAKKRISLQDLSLVIEARVEEIFESLYRELDQHRLLEVISSGIVFTGGGAKLKGLARLAEDMFKLPVRVGGPIEVSGANEVVHNPSYATVVGLLKYAAENSDTSNQQKIEEDVMEIDENTGKSKKKIISSVKGWFSNNF	not soluble
AEGKLNDELAKNKGKIPGLKIDQKIRGQMPERGWTEDDIKNTVSNGATGTSFDKRSPKKTPPDYLGRNDPATVYGSPGKYVVVNDRTGEVTQISDKTDPGWVDDSRIQWGNKNDQ	soluble
LTYLNYYGKEKPELVYTKIAQSSQQDAFNISKRSQKEMDKQKTWAMVLNQDGQIVQSYRLPQQLKRHYTNADMVKFSRWYLDDYPVFSYVRGQQILVFGYPKKYSLAKFNFYLNTQFIK	not soluble
MSFGKIVVFLVLVLVQLIHCTRFTAPSLDRTIYYRNTPPDPFGHYSFEFQTTNGITTKGAGNENGAVGVVQFVSPEGIPVTFSYVADANGYQPTGDHIPAIPLHVIRQLEYIRTHPPVDEIRSRRWLEHHHHHH	not soluble
MAHHHHHHMQSNSAPVSYGAQLRASMQTLRANDTQFEQFTRGLGAVLQQWTALQLVAQHCDSRAPAVLYEDLCAWHKHDGEVYVDDMEVYFEEFFDNIRSARIEDDSMQEVGTVLHDMYCRCCLNDFSLVEHYLETLAMYVQTNPVAMSVNGGTNENLEDDAEEDAELGGDAVCEEGVDNEDEESEPMQAPTPKAPQQPPQPPRHQQQPQRKKRKNTSVRSRDGWNIVQ	not soluble
MSLSQLFIVYLGGSAPKANIELHDVQFVIADNIEGTYEQLRQNWFGTVKDLHLDSYKAVKGADGYQISIQDKPQNSDKKLYFVNLGGYDASKLNELHEFALFVAADNTEAKEKAKQSLLKNSLHQHKDNLMEVDDCLELSKVDGKYIHLTPSDKEYDLKPYWFGYRVIGEGHHHHHH	soluble
MGSDKIHHHHHHMNTLQRRKTHQVRIDHITVGSEAPVVIQSMTNTDTADAKATALQIKELSDAGSEMVRITVNSPEAASKVAEIRRRLDDMGYATPLIGDFHFNGERLLAEFPECGKALSKYRINPGNVGKGVKGDEKFAFMIRTAAENDKAVRIGVNWGSLDQSLAKRMMDANLASSAPKPPEEVTKEALIVSALESAEKAVLLGLPEDKIILSCKVSAVQDLIQVYRELGSRCAYPLHLGLTEAGMGSKGIVASTAALSVLLQEGIGDTIRISLTPEPGSPRTQEVVVGQEILQTMGLRSFTPMVTACPGCGRTTSTVFQELAQDVQNYLRQKMSIWRTLYPGVESLNVAVMGCVVNGPGESKLADIGISLPGTGETPVAPVYVDGERKVTLKGDNIATEFLAIVEEYVKTNYGENGSKRNQNKIIPIQSL	not soluble
MLKISNSVTLQEWEIQLTPIRAQGNGGQNVNKVATAIHLRFDIHHSSLPEFYKERLLALSDSRITKDGVVIIKAQQFRTQEKNKEDALNRLQELIKAAALQDKKRIKTKPTRASQRRRLDSKNKQGAKKQQRKKVLYLEHHHHHH	not soluble
ADLLSKFDPLIAEREALLATGVRDPYAIVMDKVLSPTEAMINGRKTILLGTYNYMGMTFDPDVIAAGKQALDEFGSGTTGSRVLNGTYQGHKACEDALKEFYGTEHAIVFSTGYQANLGMISTLAGKGDYIILDADSHASIYDGCWLGDAEIVRFRHNSVEDLDKRLGRLPAEAGKLVVLEGVYSMMGDIAPLQEMVAVSKKHGAMILVDEAHGMGFFGEHGRGVFEEAGVEADVDFVVGTFSKSVGTVGGFCVSNHPKFEVLRLVCRPYVFTASLPPSVVATAATSIRKLMHAGDKRAHLWKNSRRLHQGLRDMGYKLGTETAQSAIIAVILTDMAQAVALWQGLLEAGLYVNTARPPATPAGMFLLRCSLCAEHSDEQVEQILGMFESAGRATGVIPKLAAALEHHHHHH	soluble
MKVAVLPGDGIGPEVTEAALKVLRALDEAEGLGLAYEVFPFGGAAIDAFGEPFPEPTRKGVEEAEAVLLGSVGGPKWDGLPRKIRPETGLLSLRKSQDLFANLRPAKVFPGLERLSPLKEEIARGVDVLIVRELTGGIYFGEPRGMSEAEAWNTERYSKPEVERVARVAFEAARKRRKHVVSVDKANVLEVGEFWRKTVEEVGRGYPDVALEHQYVDAMAMHLVRSPARFDVVVTGNIFGDILSDLASVLPGSLGLLPSASLGRGTPVFEPVHGSAPDIAGKGIANPTAAILSAAMMLEHAFGLVELARKVEDAVAKALLETPPPDLGGSAGTEAFTATVLRHLA	soluble
VSFNANEVTHVDTPQEALAASLNKFGEVNLEYMENLSETGRQELLTQLENRIFYNPMMKNYEIKDRFIAGNVVAKVEWIENYLKDYPDDDASKKSLEALQKAIPEPISFELLDFNLGERWIPVSVYEEFAGYLFEAKAHIHYTESIDEFSVSFEETNANITDRYYVKGEKRGYYGNDLLKHALHNTVPDITKTVQDEEGNDIKVRDAEAIQLADAKINEIRSAFTGWLNEQLPEFKQHLADMYNRKFNCYVRPDYDGSLQSF	soluble
MKTLMVFDPAMCCSTGVCGTDVDQALVDFSTDVQWLKQCGVQIERFNLAQQPMSFVQNEKVKAFIEASGAEGLPLLLLDGETVMAGRYPKRAELARWFGIPLDKVGLAPG	soluble
GPAIAENLYFQSPQLNGGGGDDLGANDELISFKDEGEQEEKSSENSSAERDLADVKSSLVNESETNQNSSSDSEAERRPPPRSESFRDKSRESLEEAAKRQDGGLFKGPPYPGYPFIMIPDLTSPYLPNGSLSPTARTYLQMKWPLLDVQAGSLQSRQALKDARSPSPAHIVSNKVPVVQHPHHVHPLTPLITYSNEHFTPGNPPPHLPADVDPKTGIPRPPHPPDISPYYPLSPGTVGQIPHPLGWQGQPVYPITTGGFRHPYPTALTVNASMSRFPPHMVPPHHTLHTTGIPHPAIVTPTVKQESSQSDVGSLHSSKHQDSKKEEEKKKPHIKKPLNAFMLYMKEMRAKVVAECTLKESAAINQILGRRWHALSREEQAKYYELARKERQLHMQLYPGWSARDNYGKKKKRKRDKQPGETNEHSECFLNPCLSLPPITGEKKSAFATYKVKAAASAHPLQMEAY	soluble
MGSDKIHHHHHHMTQALTKQVIFDEFIDWLPENSEGRYELHDGVIVEMPKPSGKHSNVIGFLIEELFLSIIQIGKRGIWTIPRESIVKPNSKSGYEPDIIVLDQEALSNEPRWERESIIENPASVKLIVEVVSTAVASSRETRPTHCLTNWRDDYYKKRADYVRVASRREEMGIPEYWIVDYAGLGGRAFIGNPKQPTISVNYLIEGEYQVSQFRQGERIQSVTFPELDLTVDQIFQVG	not soluble
KIVAVTACPTGIAHTYMAADALMKAAPKHNVQIKVETQGAMGIENQLTPHDIAQADRVLIVSDIEIEQPGRFEGTRKIQIPIEEVLLNVDKVFL	not soluble
MAFKNTKTLVFVLDGKLRNIPIAALFDGQQYLIEKYAVALSPGLQLMAAQSLEQNKIKAIVAGISESRSGFAALPAVESEVKQISQTIPSSMLLNQKFTSQALADRIKSSRADVVHLATHGQFSSRIEDTFLLTWDGQVNVKDLSELLKNRSGDSSKAIELLVLSACDTATGDDRAVLGLAGLAVKSGARSTIATLWPVKDKAAEMLMTRFYDQLRKPKITKAEALRQAQINLIHQTDFQDPFFWSAFVLVGNWLLEHHHHHH	not soluble
MGVISAYAVVHERAAIIDPGTAKGAEIILDEIDRSWNVEYICPTHIHIDHGGGAARLAKALDAKIIVHPRGVKHVVNPEKLWEASKAVLGEVAEIYGKPESIDESKVIAVEDEQEFDLGGERLKVFHAPGHAPHMLVYYLTNSKVLFPADAVGMCFGGVVFPLTPPPFDADAALKTLKRLKGLKVDYVAFTHYGVVEGDWPIAKLEHHHHHH	not soluble
MEIRLFSGSAHPDLARRVAEALGVPLGKALVDRFPDGEVRVRLLESVRGEDVYLIQPTCPPVNDHLMELLLLADAARRSSAGRINAVIPYFGYARQDKQTEGREPISARLVAGLLERVGVERVIAIDLHAPQIQGFFDIPVDHLSAVRLFARYLREKGYVENAVVVSPDAGRAEEARRLAERLGLPLAMLAKRRLGPRETSVTYVIGDVEGKRPILVDDIVSTGGTIRRGVEALLQAGALPEVVVMATHAVLVGGAKENLAHPAVREVVFTDTIPLKDGGYTVLSTAELLAQAIRHVHTNQSVSALI	soluble
MGIKGDKKATSDQARLARLTLEGNSGNEEDIQFMIKTIIETTGCTQAQAEIALLDTDNNLYGAIDHILDAGDKLDSWTEQKGAKKEKKKPEEGSYNNRGFVARGRGGGTGFVDRGGRGRSNGAPRESRDNNRDNRDNKEGAAPRSTRGGFEKPYVGRGGRGGARGGYSRAVAPSSALEPDAFTADLDENQTKVDTTVTEVQPPVEESVTATVPTSSAPAPISFAAVAAAAHRKEALRKHQAQNPQPAAPPRRSLSPQPPLPSVAPVKEEPAAAPVFFEPETSHQPEKEDGFFQNESSVLAEEQTPNVSTHHDENVQSTPEPNQAWTTQLKTDLGIGLSEAPGLGLSPIPSAAPVQIIPDPGVEFVGTTAPTNIHDYSFGFVEAAPSPQLPSTESSAASISNASENIFNSSRIMPKQVEPERTSIPNGDYNLKSTSPPLSYGQSNRGLSYDTSSASYQPTDRMAPNKFNNSGPLPTQQSAQQHQPQQQQQQAPQQPVQQQQQTPPAQSQPTGHPQQHPHMMFTQQLPYAPYMNNYMNMYNPMPGVRDEQYTAALMQYGMGVDLTSLLPTAPLSQAASAQQVQSGQQRETHGLMDFNKFGSQSSRDQQPQQASNVGPPPGFQATNYMQQPNLSSLFMQQYSPAPHQFTPFMNMMPNVGSSAGGRQLYGQDDERKSYDKMSGSKPAAQQNQHSQYQHNGGNLGKYGMNKPYNWSN	not soluble
MKKIVLYGGQFNPIHTAHMIVASEVFHELQPDEFYFLPSFMSPLKKHHDFIDVQHRLTMIQMIIDELGFGDICDDEIKRGGQSYTYDTIKAFKEQHKDSELYFVIGTDQYNQLEKWYQIEYLKEMVTFVVVNRDKNSQNVENAMIAIQIPRVDISSTMIRQRVSEGKSIQVLVPKSVENYIKGEGLYEH	soluble

Source: the DeepSol protein solubility set
